For assay [1], the target named is VEGFR2 and αvβ3 integrin on HUVEC. Briefly: cell-based or functional assay.
Assay [2] deals with U87MG human glioblastoma cells. The assay is described as follows: flow cytometry titration on U87MG cells, anti-FLAG detection. A general note: Flow cytometry measures light scatter and fluorescence of single cells or particles in a stream.
The target of assay [3] is VEGFR2 and αvβ3 integrin on HUVEC. Briefly: flow cytometry titration on HUVEC (VEGFR2 and αvβ3 integrin), anti-FLAG detection.
Assay [4] has as its target VEGFR2 and αvβ3 integrin on SVR angiosarcoma cells (murine). The assay is described as follows: flow cytometry titration on SVR murine angiosarcoma cells (VEGFR2 and αvβ3 integrin), anti-FLAG detection.
The target of assay [5] is T1, recombinant human VEGFR2 extracellular domain (human, UniProt P35968 20-764).
T1 construct: extracellular domain; Bought (Calbiochem); also called KDR; Flk-1
T1 sequence (P35968 20-764): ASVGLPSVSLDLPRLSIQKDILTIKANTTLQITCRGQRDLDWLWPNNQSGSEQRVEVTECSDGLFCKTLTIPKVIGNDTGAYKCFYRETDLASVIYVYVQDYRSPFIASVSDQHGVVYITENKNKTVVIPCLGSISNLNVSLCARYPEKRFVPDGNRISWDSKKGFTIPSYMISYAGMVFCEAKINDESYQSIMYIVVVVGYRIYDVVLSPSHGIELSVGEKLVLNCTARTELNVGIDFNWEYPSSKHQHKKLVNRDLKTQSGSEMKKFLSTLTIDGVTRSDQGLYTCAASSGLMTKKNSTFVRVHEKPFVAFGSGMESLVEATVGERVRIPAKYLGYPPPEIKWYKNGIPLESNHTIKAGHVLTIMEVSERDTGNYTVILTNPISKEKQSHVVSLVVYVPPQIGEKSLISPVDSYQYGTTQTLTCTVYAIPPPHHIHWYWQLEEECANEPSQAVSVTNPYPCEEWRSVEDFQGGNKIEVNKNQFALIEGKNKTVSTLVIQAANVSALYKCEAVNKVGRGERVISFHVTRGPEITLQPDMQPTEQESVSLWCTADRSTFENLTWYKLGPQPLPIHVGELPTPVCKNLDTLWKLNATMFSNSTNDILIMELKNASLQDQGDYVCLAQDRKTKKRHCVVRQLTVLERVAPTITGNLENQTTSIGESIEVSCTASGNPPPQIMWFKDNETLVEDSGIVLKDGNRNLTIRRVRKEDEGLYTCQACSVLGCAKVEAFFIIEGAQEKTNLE
The assay is described as follows: yeast surface display of individual clones, soluble VEGFR2.

The values below come from patent US20160039896A1 (Stanford University, published 2016).

The term Kd denotes the free concentration of one partner at which half of the binding sites on the other are occupied at equilibrium, for simple one-to-one binding.

B1: scVEGFrgd-7I (ligand)
chain: EVVKAMDVYQRSYCHPIETLVDIFQEYPDEIEYIFKPSCVPLMRCGGCCNDAGLECVPTEESNITMQIMRIKPHQGQHIGEMSFLQHNKCECRPKKDGSTSGSGKSSEGKGEVVKFMDVYQRSYCHPIETLVDIFQEYPDEIEYAFKPSCVPLMRCGGCCNDEGLECVPTEESNITMQIMRPSVRRGDSPASHIGEMSFLQHNKCECRPKKDTR
In the case of B1, the inhibition of VEGF-induced autophosphorylation of VEGFR-2 in HUVEC, in the presence of vitronectin in assay [1] worked out at 80%. Also, the figures for the Kd in assay [2], in assay [3] and in assay [4] were 13.9 nM, 6 nM and 37 nM, respectively.

B2: scVEGFrgd-7H (ligand)
chain: EVVKAMDVYQRSYCHPIETLVDIFQEYPDEIEYIFKPSCVPLMRCGGCCNDAGLECVPTEESNITMQIMRIKPHQGQHIGEMSFLQHNKCECRPKKDGSTSGSGKSSEGKGEVVKFMDVYQRSYCHPIETLVDIFQEYPDEIEYAFKPSCVPLMRCGGCCNDEGLECVPTEESNITMQIMRPGGRGDSAYHIGEMSFLQHNKCECRPKKDTR
B2: the Kd in assay [2] was found to be 15.6 nM; in assay [3], 12 nM; in assay [4] it was 18 nM.

B3: scVEGFrgd-7P (ligand)
chain: EVVKAMDVYQRSYCHPIETLVDIFQEYPDEIEYIFKPSCVPLMRCGGCCNDAGLECVPTEESNITMQIMRIKPHQGQHIGEMSFLQHNKCECRPKKDGSTSGSGKSSEGKGEVVKFMDVYQRSYCHPIETLVDIFQEYPDEIEYAFKPSCVPLMRCGGCCNDEGLECVPTEESNITMQIMRPASRGDSPPHIGEMSFLQHNKCECRPKKDTR
With B3, the figures for the Kd in assay [2], in assay [3] and in assay [4] were 29 nM, 45 nM and 31 nM, respectively.

B4: scVEGFrgd-7B-K (ligand)
chain: EVVKAMDVYQRSYCHPIETLVDILQEYPDEIEYIFKPSCVPLMRCGGCCNDAGLECVPTEESNITMQIMRIKPYQGQHIGEMSFLQHNKCECRPKKDGSTSGSGKSSEGKGEVVRFMDVYQRSYCHPIETLVDIFQEYPDEIEYAFKPSCVPLMRCGGCCNHEGLECVPTEESNITMQIMRPHDRGDAGVHIGEMSFLQHNKCECRPKED
notes: built from the parts; F17A, E64A and I46A are kept because the RGD libraries were made from scVEGFmut
In the case of B4, the binding result in assay [5] is on record as “binds”.

B5: scVEGFrgd-7B-C (ligand)
chain: EVVKAMDVYQGSYCHPIETLVDILQEYPDEIEYIFKPSCVPLMRCGGCCNNAGLECVPTEESNITMQIMRIKPYQGQHIGEMSFLQHNKCECRPKKGGSTSGSGKSSEGKGEVVKFMDVYQRSYCHPIETLVDIFQEYPDEIEYAFKPSCVPLMRCGGCCNHEGLECVPTEESNITMRIMRPHDRGDAGVHIGEMSFLQHNKCECRPKRD
notes: as for B4
Turning to B5, the binding result in assay [5] is on record as “binds”.

B6: scVEGFrgd-7B-A (ligand)
chain: EVVKAMDVYQRSYCHPIETLVDILQEYPDEIEYIFKPSCVPLMRCGGCCNDAGLECVPTEESNITMQVMRIKPYRGQHIGEMSFLQHNKCECRPKKDGSTSGSGKSSEGKGEVVKFMDVYQRSYCHPIETLVDIFQEYPDEIEYAFKPSCVPLMRCGGCCNNEGLECVPTEESNITMQIMRPHDRGDAGVHIGEMSFLQHNKCECRPRKD
notes: as for B4
Consider B6, for which the binding result in assay [5] is “binds”.
